Numbered stars: 1 amine (or outer) side, 2 acyl side, 3 side chain; on linkers, the order of the positions; unused ones are H or OH. Bridge positions count the residues as written; N and C are the ends. Ends that are not written are not given here. Phenylene(1,4-NHCOCH2)2 = O=C(C[*:1])Nc1ccc(NC(=O)C[*:2])cc1
Molecular target: CDK2 (Homo sapiens, UniProt P24941)
Experiment: Phage Library Screening with NGS, CDK2
Format: binding
Set-up: Full length CDK2 (residues 1-298) with an N-terminal GST-3C-6×his-TEV tag; GST-3C-6×his-TEV (N, cleaved yes); made in house; host or cells: Sf9 (Bac-to-Bac baculovirus)
Details: for phage screen counts, Target Concentration 10: CDK2, target concentration 10; for phage screen counts, Target Concentration 30: CDK2, target concentration 30; for phage screen counts, Target Concentration 100: CDK2, target concentration 100; for phage screen counts, Target Concentration 300: CDK2, target concentration 300
[1] = CDK2, target concentration 1000, first column
[2] = CDK2, target concentration 1000, second column

Sequence	phage screen counts, Target Concentration 10	phage screen counts, Target Concentration 30	phage screen counts, Target Concentration 100	phage screen counts, Target Concentration 300	phage screen counts, Target Concentration 1000 [1]	phage screen counts, Target Concentration 1000 [2]
DPAWWMCTIAAIECETT (linker 7-14 via Phenylene(1,4-NHCOCH2)2 (inferred))	0	0	73	973	909	998
DPAWWRCSIAAMECHHD (linker 7-14 via Phenylene(1,4-NHCOCH2)2 (inferred))	0	0	13	39	119	102
DPAWWRCSIAAVDCEMQ (linker 7-14 via Phenylene(1,4-NHCOCH2)2 (inferred))	0	0	0	93	238	217
DPAWWRCSVAAIDCHWN (linker 7-14 via Phenylene(1,4-NHCOCH2)2 (inferred))	0	10	3	93	65	230
DPAWWRCVVAALDCVDY (linker 7-14 via Phenylene(1,4-NHCOCH2)2 (inferred))	0	12	8	262	162	409
DPAWWSCVIAAMECQDI (linker 7-14 via Phenylene(1,4-NHCOCH2)2 (inferred))	0	0	0	39	87	90
DPAWWTCIIAALECEEQ (linker 7-14 via Phenylene(1,4-NHCOCH2)2 (inferred))	0	0	51	193	195	102
DPAWWTCSVAAIQCWDS (linker 7-14 via Phenylene(1,4-NHCOCH2)2 (inferred))	0	0	10	69	119	243
DPAWWVCAIAAIECSDV (linker 7-14 via Phenylene(1,4-NHCOCH2)2 (inferred); not fully specified (N-terminus, C-terminus))	38	634	2330	12368	7673	8315
DPAWWVCAIAAMDCHEQ (linker 7-14 via Phenylene(1,4-NHCOCH2)2 (inferred))	0	0	0	139	216	422
DPAWWVCAVAAIECQEY (linker 7-14 via Phenylene(1,4-NHCOCH2)2 (inferred))	3	47	258	1258	822	819
DPAWWVCSIAAIECESS	0	0	10	85	65	77
DPAWYACIVAAVDCEHS (linker 7-14 via Phenylene(1,4-NHCOCH2)2 (inferred))	0	0	8	46	206	115
DPAWYECIVAAIECVEY (linker 7-14 via Phenylene(1,4-NHCOCH2)2 (inferred))	0	0	79	131	54	115
DPAWYECVVAAIECHAY (linker 7-14 via Phenylene(1,4-NHCOCH2)2 (inferred))	0	12	0	286	411	473
ECLSAFFTCV (linker 2-9 via Phenylene(1,4-NHCOCH2)2 (inferred))	0	0	0	57	452	284
FECLDAFFSC (linker 3-10 via Phenylene(1,4-NHCOCH2)2 (inferred); not fully specified (N-terminus, C-terminus))	0	0	0	49	982	405
MACVDAFFSC (linker 3-10 via Phenylene(1,4-NHCOCH2)2 (inferred))	0	0	1	17	320	16
PACVSAFFACL (linker 3-10 via Phenylene(1,4-NHCOCH2)2 (inferred))	0	0	0	0	151	19
PCLDAFFYCVT (linker 2-9 via Phenylene(1,4-NHCOCH2)2 (inferred))	0	0	0	7	18	51
PCLEAFFSCVY (linker 2-9 via Phenylene(1,4-NHCOCH2)2 (inferred))	0	0	0	61	314	257
PCMDAFFSCVW (linker 2-9 via Phenylene(1,4-NHCOCH2)2 (inferred))	0	0	1	0	39	8
PECLEAFFDCR (linker 3-10 via Phenylene(1,4-NHCOCH2)2 (inferred))	0	9	0	84	344	328
PECLVAFFSCV (linker 3-10 via Phenylene(1,4-NHCOCH2)2 (inferred))	0	1	9	9	422	142
PFECLSAFFSC (linker 4-11 via Phenylene(1,4-NHCOCH2)2 (inferred))	0	0	0	1	212	44
PMACLSAFFTC (linker 4-11 via Phenylene(1,4-NHCOCH2)2 (inferred))	0	0	0	16	114	176
PSCLSAFFSCY (linker 3-10 via Phenylene(1,4-NHCOCH2)2 (inferred))	0	1	0	14	722	485
